Test results reported in the supplement of paper PMC10126150.
± gives the standard deviation of the averaged measurements.

Tested on: ATP
Assay: switch fluorescence ratio, 500 uM ATP over buffer (Cy3 cluster intensity, sum of 5 cycles each) (fold (ratio)); higher = stronger signal-on switching upon ATP binding; sequences stand for … in TCGTCGGCAGCGTCAGATGTGTATAAGAGACAGTTTTTTTTTTTTTTTTTTTTTTTTT…TC
Details: aptamer strand: ATP DNA aptamer (quencher-CACCTGGGGGAGTATTGCGGAGGAAGG + anchor), 100 nM annealed; ATP concentration: 500 uM
How it was run: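 For every switch-domain sequence, the fluorescence ratio is the mean of per-cluster values, each being summed target-cycle Cy3 intensity over summed buffer-cycle Cy3 intensity. Clusters outside 100-1000 RFU were excluded. On a modified Illumina MiSeq flow-cell, the Cy3-labelled switching-strand clusters were annealed to 100 nM quencher-labelled ATP aptamer, imaged in selection buffer and then after 15 min with 500 uM ATP at 22 °C. Five such cycles were run, with NaOH stripping and re-annealing between them.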
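Also: ATP exposure 15 min at 22 °C before imaging.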

| Sequence | switch fluorescence ratio |
| --- | --- |
| GACACCACAG | 1.162 ± 0.0035 |
| GACACCATTC | 1.13 ± 0.017 |
| GACACTGGTA | 1 ± 0.027 |
| GACACTTGCT | 0.99 ± 0.035 |
| GACAGAATGT | 0.976 ± 0.023 |
| GACAGCAAAT | 1.406 ± 0.0043 |
| GACAGCCTTA | 1.01 ± 0.0069 |
| GACAGCGCTA | 1.01 ± 0.042 |
| GACAGTAGGG | 1 ± 0.043 |
| GACAGTGGTT | 1.05 ± 0.059 |
| GACATATACA | 1.07 ± 0.025 |
| GACATGAGTT | 0.984 ± 0.026 |
| GACATGGCTT | 0.975 ± 0.011 |
| GACATGTGGC | 1.03 ± 0.037 |
| GACATGTTTT | 1.039 ± 0.0097 |
| GACATTTGCA | 1.03 ± 0.023 |
| GACCAAGTCA | 0.997 ± 0.026 |
| GACCATGTAC | 1.48 ± 0.1 |
| GACCCCGATT | 1.05 ± 0.022 |
| GACCCTATAA | 1.11 ± 0.066 |
| GACCCTTAGA | 1.01 ± 0.011 |
| GACCGAAAAT | 1.055 ± 0.0015 |
| GACCGCATTT | 1.68 ± 0.46 |
| GACCGGCATG | 1.01 ± 0.024 |
| GACCGGCGGT | 0.996 ± 0.035 |
| GACCGTGGGG | 1 ± 0.027 |

| Sequence | switch fluorescence ratio |
| --- | --- |
| GACCTAGCTA | 1.14 ± 0.053 |
| GACCTCATTT | 1.04 ± 0.032 |
| GACCTGGGTC | 1.01 ± 0.0023 |
| GACGAACATT | 1.18 ± 0.21 |
| GACGAAGTTG | 1.01 ± 0.029 |
| GACGAATTGG | 0.997 ± 0.021 |
| GACGACGGTT | 1.55 ± 0.1 |
| GACGAGCCAG | 1.002 ± 0.0066 |
| GACGATAGTT | 0.977 ± 0.026 |
| GACGATTGTT | 0.988 ± 0.021 |
| GACGCATCTA | 3.35 ± 0.36 |
| GACGCGAGTT | 1.09 ± 0.022 |
| GACGCTAAAG | 1.08 ± 0.029 |
| GACGGACTTT | 1.143 ± 0.006 |
| GACGGAGGCT | 1.04 ± 0.042 |
| GACGGCAATG | 1.05 ± 0.032 |
| GACGGCGCAG | 1.06 ± 0.14 |
| GACGGCGGGC | 0.989 ± 0.023 |
| GACGGGGGAT | 1.081 ± 0.0031 |
| GACGGGGTGC | 1.3 ± 0.24 |
| GACGGGTGTC | 0.967 ± 0.012 |
| GACGGGTTGG | 0.992 ± 0.045 |
| GACGGGTTTG | 0.9915 ± 0.0074 |
| GACGGTTGGG | 0.983 ± 0.026 |
| GACGGTTTAG | 1.04 ± 0.058 |
| GACGTAGACA | 1.042 ± 0.01 |

| Sequence | switch fluorescence ratio |
| --- | --- |
| GACGTCGGTC | 0.9984 ± 0.0089 |
| GACGTGCAGG | 1.07 ± 0.11 |
| GACGTGTTGG | 1.01 ± 0.065 |
| GACGTTAGCT | 1.03 ± 0.012 |
| GACGTTAGGG | 0.957 ± 0.042 |
| GACGTTTACA | 1.17 ± 0.016 |
| GACTAAAAGA | 0.99 ± 0.055 |
| GACTAATTTT | 0.9844 ± 0.0081 |
| GACTAGGGGG | 1 ± 0.048 |
| GACTAGTGGT | 1.01 ± 0.035 |
| GACTATCTAG | 0.975 ± 0.056 |
| GACTATGACC | 1.05 ± 0.013 |
| GACTATGGGA | 1.42 ± 0.55 |
| GACTCATAAT | 1.004 ± 0.0015 |
| GACTCCGATT | 2.28 ± 0.1 |
| GACTCTACGG | 1.05 ± 0.032 |
| GACTGAAAAA | 0.981 ± 0.14 |
| GACTGAGAGT | 1 ± 0.054 |
| GACTGAGTTC | 0.972 ± 0.042 |
| GACTGGGCGG | 1 ± 0.021 |
| GACTGGGGG | 1.0292 ± 0.00087 |
| GACTGGGGGA | 1.01 ± 0.025 |
| GACTGGTATG | 0.972 ± 0.011 |
| GACTTACCAC | 1.17 ± 0.052 |
| GACTTAGGAA | 1.05 ± 0.072 |
| GACTTGAATT | 0.99 ± 0.034 |

| Sequence | switch fluorescence ratio |
| --- | --- |
| GACTTGGTAG | 0.9884 ± 0.0053 |
| GACTTGGTGT | 1.047 ± 0.0092 |
| GACTTGTTGG | 0.974 ± 0.042 |
| GACTTTAGCG | 1.03 ± 0.023 |
| GACTTTGAGC | 1.01 ± 0.016 |
| GACTTTGTAC | 1.06 ± 0.014 |
| GACTTTTGGG | 1.01 ± 0.033 |
| GAGAAAAAGG | 0.976 ± 0.013 |
| GAGAACGGTG | 1 ± 0.032 |
| GAGAACGTAG | 0.9817 ± 0.0066 |
| GAGAAGGGGG | 1.04 ± 0.049 |
| GAGAAGGGTG | 1.01 ± 0.071 |
| GAGAAGTGTG | 0.993 ± 0.038 |
| GAGAATTATA | 0.978 ± 0.019 |
| GAGAGAACTT | 1.03 ± 0.021 |
| GAGAGCAGGG | 0.995 ± 0.026 |
| GAGAGCCTTA | 0.9853 ± 0.0079 |
| GAGAGGAGAG | 0.998 ± 0.035 |
| GAGAGGAGCT | 1.01 ± 0.039 |
| GAGAGGGGGC | 0.931 ± 0.018 |
| GAGAGTGTGT | 0.982 ± 0.011 |
| GAGATACATG | 1.02 ± 0.044 |
| GAGATCGGTA | 1.006 ± 0.0069 |
| GAGATGCTGC | 1.05 ± 0.017 |
| GAGATGGGGG | 0.981 ± 0.038 |
| GAGATGTACC | 1.03 ± 0.026 |

| Sequence | switch fluorescence ratio |
| --- | --- |
| GAGATTAAGA | 0.973 ± 0.1 |
| GAGATTCGCT | 0.988 ± 0.014 |
| GAGATTGGGG | 0.99 ± 0.022 |
| GAGCAGGGGT | 1.04 ± 0.063 |
| GAGCATAGGG | 1.02 ± 0.013 |
| GAGCATTGGA | 0.992 ± 0.036 |
| GAGCCACGGG | 1.04 ± 0.015 |
| GAGCCTGGGT | 1.01 ± 0.017 |
| GAGCGAAGGA | 1.01 ± 0.029 |
| GAGCGCGGCG | 0.977 ± 0.048 |
| GAGCGTAGTA | 1 ± 0.037 |
| GAGCGTCTGG | 1.02 ± 0.011 |
| GAGCTACGGG | 1.01 ± 0.033 |
| GAGCTAGGCA | 0.958 ± 0.03 |
| GAGCTAGGGT | 0.9905 ± 0.006 |
| GAGCTAGTGT | 0.9792 ± 0.0081 |
| GAGCTCAGTG | 1.002 ± 0.0069 |
| GAGCTGAATG | 0.9518 ± 0.0063 |
| GAGCTGGATA | 0.967 ± 0.03 |
| GAGCTTAGGA | 0.988 ± 0.013 |
| GAGCTTGCGT | 1.01 ± 0.025 |
| GAGCTTGGCA | 0.9859 ± 0.0058 |
| GAGCTTGGGG | 0.991 ± 0.028 |
| GAGCTTTTCA | 0.965 ± 0.023 |
| GAGGAAAATA | 0.981 ± 0.011 |
| GAGGAAGTTA | 1.06 ± 0.097 |

| Sequence | switch fluorescence ratio |
| --- | --- |
| GAGGAATTTT | 0.983 ± 0.0093 |
| GAGGACTGTA | 1.09 ± 0.025 |
| GAGGAGCTCG | 0.9522 ± 0.0045 |
| GAGGAGGATA | 0.953 ± 0.024 |
| GAGGAGGCGG | 1.03 ± 0.014 |
| GAGGAGGGTT | 0.992 ± 0.051 |
| GAGGATAAGT | 0.988 ± 0.078 |
| GAGGATCTGT | 0.961 ± 0.023 |
| GAGGATGGGG | 0.977 ± 0.039 |
| GAGGCAGGGA | 1.19 ± 0.16 |
| GAGGCATTTT | 1.09 ± 0.089 |
| GAGGCCTTAC | 1.69 ± 0.043 |
| GAGGCGCGGA | 1.01 ± 0.013 |
| GAGGCTGATA | 1.02 ± 0.013 |
| GAGGCTTGTT | 0.981 ± 0.01 |
| GAGGGAAGAT | 0.999 ± 0.014 |
| GAGGGACGCT | 1.02 ± 0.033 |
| GAGGGAGCGT | 1.002 ± 0.0083 |
| GAGGGAGGGG | 1.02 ± 0.044 |
| GAGGGAGGTA | 0.9658 ± 0.006 |
| GAGGGAGTAG | 0.9962 ± 0.0012 |
| GAGGGAGTTG | 0.997 ± 0.017 |
| GAGGGATATT | 1.02 ± 0.022 |
